According to publication PMC7553530:

Molecular target: recombinant human PD-L1 (rhPD-L1) ectodomain (human) (UniProt Q9NZQ7)
Assay: SPR

UniProt Q9NZQ7, sequence (Q9NZQ7 19-238): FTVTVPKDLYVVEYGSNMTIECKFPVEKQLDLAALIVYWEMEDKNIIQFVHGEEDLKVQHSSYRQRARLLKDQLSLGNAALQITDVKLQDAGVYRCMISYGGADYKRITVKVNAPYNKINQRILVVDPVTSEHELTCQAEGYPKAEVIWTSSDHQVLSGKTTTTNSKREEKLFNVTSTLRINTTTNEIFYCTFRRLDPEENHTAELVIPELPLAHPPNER

Substance	response (RU)
MVF-PD-1 (32–50) (from UniProt P69353 288-302) (peptide)	11
MVF-PD-1 (45–64) (from UniProt P69353 288-302) (peptide)	110
MVF-PD-1 (92–110) (from UniProt P69353 288-302) (peptide)	110
MVF-PD-1 (73–90) (from UniProt P69353 288-302) (peptide)	110
